Assay [1] deals with T1, human VEGFR2 on cells (PAE/KDR cells, HUVEC) (human, UniProt P35968 20-1356).
T1 construct: whole, on cells
Description: flow cytometry titration on PAE/KDR cells, anti-FLAG detection.

For assay [2], the target named is T2, αiibβ3 integrin on transfected K562 cells (UniProt P08514 32-1039; P05106 27-788, limits assumed).
T2 construct: whole, on cells
Briefly: flow cytometry on K562 cells transfected with αiibβ3. In general terms: A flow cytometer gives signals particle by particle.

The target in assay [3] is T3, α5β1 integrin on wild-type K562 cells (UniProt P08648 42-1049; P05556 21-798, limits assumed).
T3 construct: whole, on cells
Description: flow cytometry on wild-type K562 cells.

Assay [4] addresses T4, porcine αvβ3 integrin on PAE cells (porcine, UniProt A0A5K1V6L8 31-1052; A0A8D0RDV2 33-793).
T4 construct: whole, on cells
Briefly: flow cytometry on PAE cells.

Assay [5] has as its target T5, αvβ5 integrin on transfected K562 cells (UniProt P06756 31-1048; P18084 24-799, limits assumed).
T5 construct: whole, on cells
Description: flow cytometry on K562 cells transfected with αvβ5.

Assay [6] deals with T6, recombinant human VEGFR2 extracellular domain (human, UniProt P35968 20-764).
T6 construct: extracellular domain; also called KDR; Flk-1
T6 sequence (P35968 20-764): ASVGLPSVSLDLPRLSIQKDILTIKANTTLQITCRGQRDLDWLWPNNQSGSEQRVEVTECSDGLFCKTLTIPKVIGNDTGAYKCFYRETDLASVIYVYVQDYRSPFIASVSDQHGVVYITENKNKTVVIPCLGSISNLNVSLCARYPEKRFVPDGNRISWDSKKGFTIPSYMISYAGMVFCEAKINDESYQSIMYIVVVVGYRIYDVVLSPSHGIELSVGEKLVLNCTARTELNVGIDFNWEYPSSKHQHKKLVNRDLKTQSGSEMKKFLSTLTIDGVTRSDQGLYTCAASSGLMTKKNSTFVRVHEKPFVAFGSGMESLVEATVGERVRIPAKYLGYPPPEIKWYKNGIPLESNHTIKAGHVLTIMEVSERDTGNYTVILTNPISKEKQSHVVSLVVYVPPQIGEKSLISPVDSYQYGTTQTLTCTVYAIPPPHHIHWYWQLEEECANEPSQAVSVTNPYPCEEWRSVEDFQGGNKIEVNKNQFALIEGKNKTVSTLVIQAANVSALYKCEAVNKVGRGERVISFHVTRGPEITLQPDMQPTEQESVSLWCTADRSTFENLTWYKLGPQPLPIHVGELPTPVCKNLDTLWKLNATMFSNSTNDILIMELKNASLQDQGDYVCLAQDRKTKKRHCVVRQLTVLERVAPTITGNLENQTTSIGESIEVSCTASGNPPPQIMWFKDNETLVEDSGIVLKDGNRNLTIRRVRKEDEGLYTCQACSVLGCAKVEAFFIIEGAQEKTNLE
Description: SPR (BIAcore 3000), VEGFR2 amine-coupled to CM5 chip, scVEGF as analyte, 1:1 model. (Surface plasmon resonance follows binding to a sensor surface in real time, without labels.)

In assay [7] the target is T7, VEGFR2 on SVR angiosarcoma cells (murine cell line) (murine, UniProt P35918 20-1345).
T7 construct: whole, on cells
T7 sequence (P35918 20-1345): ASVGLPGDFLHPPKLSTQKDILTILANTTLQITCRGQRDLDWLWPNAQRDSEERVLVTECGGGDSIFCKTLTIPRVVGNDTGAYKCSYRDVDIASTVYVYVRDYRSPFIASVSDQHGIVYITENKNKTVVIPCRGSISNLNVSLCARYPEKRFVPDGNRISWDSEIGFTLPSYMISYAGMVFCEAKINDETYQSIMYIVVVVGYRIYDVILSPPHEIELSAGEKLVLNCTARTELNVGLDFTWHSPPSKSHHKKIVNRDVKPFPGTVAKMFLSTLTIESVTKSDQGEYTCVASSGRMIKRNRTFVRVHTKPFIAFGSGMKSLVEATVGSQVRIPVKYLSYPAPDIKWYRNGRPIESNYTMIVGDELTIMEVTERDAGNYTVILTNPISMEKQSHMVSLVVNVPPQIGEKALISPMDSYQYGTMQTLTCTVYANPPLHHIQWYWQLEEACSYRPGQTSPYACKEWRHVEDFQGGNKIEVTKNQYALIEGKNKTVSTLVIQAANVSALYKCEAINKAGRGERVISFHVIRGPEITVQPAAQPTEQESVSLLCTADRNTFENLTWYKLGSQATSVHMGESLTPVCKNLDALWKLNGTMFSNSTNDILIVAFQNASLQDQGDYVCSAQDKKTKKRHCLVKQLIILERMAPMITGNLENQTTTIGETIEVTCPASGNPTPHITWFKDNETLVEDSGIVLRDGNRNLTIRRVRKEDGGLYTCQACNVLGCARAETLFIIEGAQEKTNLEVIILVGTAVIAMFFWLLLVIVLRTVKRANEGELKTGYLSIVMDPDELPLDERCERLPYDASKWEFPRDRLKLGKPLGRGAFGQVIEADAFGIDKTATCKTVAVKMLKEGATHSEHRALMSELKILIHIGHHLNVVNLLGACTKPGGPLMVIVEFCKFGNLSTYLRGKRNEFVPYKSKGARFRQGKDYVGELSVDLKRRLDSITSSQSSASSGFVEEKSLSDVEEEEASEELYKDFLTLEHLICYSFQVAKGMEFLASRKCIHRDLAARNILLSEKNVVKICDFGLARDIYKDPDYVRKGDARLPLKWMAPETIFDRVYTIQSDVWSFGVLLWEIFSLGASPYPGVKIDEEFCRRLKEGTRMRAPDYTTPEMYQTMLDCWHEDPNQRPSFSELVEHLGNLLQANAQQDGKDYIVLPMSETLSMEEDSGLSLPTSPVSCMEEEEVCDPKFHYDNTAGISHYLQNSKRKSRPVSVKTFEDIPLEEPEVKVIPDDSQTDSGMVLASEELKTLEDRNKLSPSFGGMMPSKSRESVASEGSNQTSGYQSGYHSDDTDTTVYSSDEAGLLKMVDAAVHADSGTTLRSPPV
Briefly: flow cytometry on SVR cells.

For assay [8], the target named is T8, human αvβ3 integrin on cells (human, UniProt P06756 31-1048; P05106 27-788).
T8 construct: whole, on cells; also called avb3; alpha v beta 3
Description: flow cytometry on U87MG cells (no VEGFR2; receptor not named by the filing).

Assay [9] addresses T7, VEGFR2 on SVR angiosarcoma cells …. Briefly: flow cytometry titration on SVR cells, anti-FLAG detection.
The target of assay [10] is T8, human αvβ3 integrin on cells. Description: flow cytometry on K562-αvβ3 cells.
Assay [11] deals with T1, human VEGFR2 on cells (PAE/KDR cells, …). Description: flow cytometry titration on HUVEC, anti-FLAG detection.

T1 sequence (P35968 20-1356): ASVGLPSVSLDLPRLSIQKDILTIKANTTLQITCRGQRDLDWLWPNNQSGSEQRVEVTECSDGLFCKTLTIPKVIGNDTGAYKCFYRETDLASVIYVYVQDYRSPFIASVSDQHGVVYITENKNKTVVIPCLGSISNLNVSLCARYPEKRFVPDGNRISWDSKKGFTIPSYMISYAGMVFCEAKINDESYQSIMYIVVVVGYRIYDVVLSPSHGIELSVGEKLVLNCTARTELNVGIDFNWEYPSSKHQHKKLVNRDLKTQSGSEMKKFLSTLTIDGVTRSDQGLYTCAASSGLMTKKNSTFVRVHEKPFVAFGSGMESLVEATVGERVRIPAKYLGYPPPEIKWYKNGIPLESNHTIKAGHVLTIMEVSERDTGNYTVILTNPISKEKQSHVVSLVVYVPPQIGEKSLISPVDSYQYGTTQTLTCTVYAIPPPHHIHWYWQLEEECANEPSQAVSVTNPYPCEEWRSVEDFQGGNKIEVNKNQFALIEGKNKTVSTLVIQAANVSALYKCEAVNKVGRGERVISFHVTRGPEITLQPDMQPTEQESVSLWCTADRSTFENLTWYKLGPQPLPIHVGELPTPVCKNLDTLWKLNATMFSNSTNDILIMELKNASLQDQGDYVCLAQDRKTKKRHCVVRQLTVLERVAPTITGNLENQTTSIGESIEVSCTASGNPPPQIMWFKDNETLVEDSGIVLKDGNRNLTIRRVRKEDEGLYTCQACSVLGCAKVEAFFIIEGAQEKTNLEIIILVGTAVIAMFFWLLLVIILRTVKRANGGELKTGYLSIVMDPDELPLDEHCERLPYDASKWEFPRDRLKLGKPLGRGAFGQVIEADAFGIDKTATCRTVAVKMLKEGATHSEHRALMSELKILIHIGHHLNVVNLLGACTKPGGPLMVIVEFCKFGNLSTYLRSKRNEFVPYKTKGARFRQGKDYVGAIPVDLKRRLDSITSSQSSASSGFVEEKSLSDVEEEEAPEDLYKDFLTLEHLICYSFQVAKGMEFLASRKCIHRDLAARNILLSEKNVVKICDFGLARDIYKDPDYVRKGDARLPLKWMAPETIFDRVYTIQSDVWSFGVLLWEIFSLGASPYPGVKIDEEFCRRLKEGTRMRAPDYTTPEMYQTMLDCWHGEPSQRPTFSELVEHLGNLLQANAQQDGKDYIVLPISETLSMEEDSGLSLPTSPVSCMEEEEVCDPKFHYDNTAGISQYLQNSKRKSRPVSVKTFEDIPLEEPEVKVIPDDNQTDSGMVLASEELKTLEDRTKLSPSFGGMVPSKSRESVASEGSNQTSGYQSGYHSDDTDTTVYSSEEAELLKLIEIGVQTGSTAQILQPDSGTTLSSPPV

B1: scVEGF-mM (designed binder)
chain: EVVKAMDVYRRSYCHPVETSVDILQEYPDEIEYIFKPSCVPLMRCGGCCNDAGLECVPTEESNTTMQIMRIKPYRGQHIGEMSFLQHNKCECRPKKDGSTSGSGKSSEGKGEVVKFMDVYQRSYCHPIETLVDIFQEYPDEIEYAFKPSCVSLMRCGGCCNNEGLECVPTEESNITVQIMGAKPHQGQHIGEMSFLQHNKCECRPKKD
notes: Soluble protein with C-terminal hexahistidine tag, with or without N-terminal FLAG tag (tags not included in the parts); also called scVEGFmut-M
The Kd is the constant that tells how readily two partners part at equilibrium. Usually koff stands for the first-order rate constant of dissociation. A word on the kon: it is the second-order rate constant of association. Regarding B1, the Kd was found to be 34 nM in assay [1] and 3.8 nM in assay [6]. The binding result was “no binding” in assay [2]; “no binding” in assay [3]; “no binding (tested: 1 µM)” in [4]; “no binding” in assay [5]; “no binding (tested: 1 µM)” in [7]; “no binding (tested: 1 µM)” in assay [8]. Also, the koff in assay [6] was determined as 0.00108 s⁻¹. In assay [6], the kon was 290000 M⁻¹ s⁻¹.

B2: scVEGFwt (ligand)
chain: YVEVVKFMDVYQRSYCHPIETLVDIFQEYPDEIEYIFKPSCVPLMRCGGCCNDEGLECVPTEESNITMQIMRIKPHQGQHIGEMSFLQHNKCECRPKKDGSTSGSGKSSEGKGEVVKFMDVYQRSYCHPIETLVDIFQEYPDEIEYIFKPSCVPLMRCGGCCNDEGLECVPTEESNITMQIMRIKPHQGQHIGEMSFLQHNKCECRPKKDTR
notes: also called wild-type scVEGF; single-chain VEGF
Take B2: the Kd in assay [1] is 9.8 nM; in [9] it was 32 nM; in [6], 4 nM; in assay [11] it was 28 nM. Moreover, the binding result in assay [4] and in assay [10] was “no binding (tested: 1 µM)” throughout. The koff in assay [6] came to 0.0007 s⁻¹. Moreover, the kon in assay [6] stood at 200000 M⁻¹ s⁻¹.
